Data as given in publication PMC12241658.
Several values for one entry are separate records, joined by “and”; a condition that tells them apart may be missing. Equal entries are not always repeated.

How the values were obtained:
[1] = target: recombinant human αβ hemoglobin, 6x His tag on the N-terminus of the α subunit (αβHb dimer) (human) (UniProt P69905); assay: BLI
[2] = target: recombinant human αβ hemoglobin (αβHb dimer) (human) (UniProt P69905); assay: BLI
[3] = target: recombinant human adult hemoglobin (αβHb), αβ dimer (human) (UniProt P69905); assay: BLI
[4] = target: ChuA (E. coli CFT073)

## ChuA (outer membrane heme transporter, TonB-dependent transporter) from E. coli CFT073 (receptor)
[1]
  koff: 0.0574 s⁻¹ and 0.0449 s⁻¹ and 0.0512 s⁻¹
  kon: 158000 M⁻¹ s⁻¹ and 144000 M⁻¹ s⁻¹ and 173000 M⁻¹ s⁻¹

## ChuA (receptor)
[2]
  koff: 0.0574 s⁻¹ and 0.0531 s⁻¹
  kon: 144000 M⁻¹ s⁻¹ and 118000 M⁻¹ s⁻¹

## ChuA, outer membrane TonB-dependent heme/hemoglobin transporter of E. coli CFT073 (receptor)
[3]
  Kd: 71.5 nM

B1: recombinant human myoglobin (natural protein)
chain: MGLSDGEWQLVLNVWGKVEADIPGHGQEVLIRLFKGHPETLEKFDKFKHLKSEDEMKASEDLKKHGATVLTALGGILKKKGHHEAEIKPLAQSHATKHKIPVKYLEFISECIIQVLQSKHPGDFGADAQGAMNKALELFRKDMASNYKELGFQG
[4]
  EC50 of the growth of E. coli ΔTBDT:ChuOP in LB liquid medium with 200 µM 2,2'-bipyridine, supplemented with serially diluted myoglobin (nonlinear regression, three parameters): 24200 nM

B2: recombinant human neuroglobin (natural protein)
chain: MERPEPELIRQSWRAVSRSPLEHGTVLFARLFALEPDLLPLFQYNCRQFSSPEDCLSSPEFLDHIRKVMLVIDAAVTNVEDLSSLEEYLASLGRKHRAVGVKLSSFSTVGESLLYMLEKCLGPAFTPATRAAWSQLYGAVVQAMSRGWDGE
[4]
  EC50 of the growth of E. coli ΔTBDT:ChuOP in LB liquid medium with 200 µM 2,2'-bipyridine, supplemented with serially diluted neuroglobin (nonlinear regression, three parameters): 826 nM
